From US20190023807A1 (CRESCENDO BIOLOGICS, published 2019)
Residue numbers refer to the chain shown, from its start.

B1: 1.11-6GS-2.1 (bispecific antibody, not shown: small tags and cut ends)
chain: EVQLLESGGGLVQPGGSLRLSCAASGFSFSSYALSWVRQAPGKGLEWVSSIGENNDTTDYADNVKGRFTISRDNSKNTLYLQMNSLRVEDTAVYYCVKDGVHWGQGTLVTVSSGGGGSGGGGSGGGGSGGGGSGGGGSGGGGSEVQLVESGGGVVQPGRSLRLSCAASGFSFSGYGMHWVRQAPGKGLEWVAYISYDGSNKYYADSVKGRFTISRDNSKNTLYLQMNSLRAEDTAVYYCAKDPAWGLRLGESSSYDFDIWGQGTMVTVSS
B2: 1.11-6GS-2.17 (bispecific antibody, not shown: small tags and cut ends)
chain: B1 chain with G198A, S206N
B3: 1.16-6GS-2.1 (bispecific antibody, not shown: small tags and cut ends)
chain: B1 chain with D56H, N63T
B4: 1.16-6GS-2.22 (bispecific antibody, not shown: small tags and cut ends)
chain: B1 chain with D56H, N63T, M177T, D205A, S206P, P243A
B5: 1.16-6GS-2.17 (bispecific antibody, not shown: small tags and cut ends)
chain: B1 chain with D56H, N63T, G198A, S206N
B6: 1.18-6GS-2.1 (bispecific antibody, not shown: small tags and cut ends)
chain: B1 chain with D56A, D62A, N63S
B7: 1.11-6GS-2.22 (bispecific antibody, not shown: small tags and cut ends)
chain: B1 chain with M177T, D205A, S206P, P243A
B8: 1.18-6GS-2.22 (bispecific antibody, not shown: small tags and cut ends)
chain: B1 chain with D56A, D62A, N63S, M177T, D205A, S206P, P243A
B9: 1.18-6GS-2.17 (bispecific antibody, not shown: small tags and cut ends)
chain: B1 chain with D56A, D62A, N63S, G198A, S206N
B10: 1.16-6GS-2.15 (bispecific antibody, not shown: small tags and cut ends)
chain: B1 chain with D56H, N63T, M177L, G198K, S206K
B11: 1.18-6GS-2.15 (bispecific antibody, not shown: small tags and cut ends)
chain: B1 chain with D56A, D62A, N63S, M177L, G198K, S206K
B12: 1.11-6GS-2.15 (bispecific antibody, not shown: small tags and cut ends)
chain: B1 chain with M177L, G198K, S206K
B13: 1.1-6GS-2.22 (bispecific antibody, not shown: small tags and cut ends)
chain: B1 chain with L34M, N55D, D56G, N63S, N77S, T78M, M177T, D205A, S206P, P243A
B14: 1.1-6GS-2.15 (bispecific antibody, not shown: small tags and cut ends)
chain: B1 chain with L34M, N55D, D56G, N63S, N77S, T78M, M177L, G198K, S206K
B15: 1.1-6GS-2.1 (bispecific antibody, not shown: small tags and cut ends)
chain: B1 chain with L34M, N55D, D56G, N63S, N77S, T78M
B16: 1.1-6GS-2.17 (bispecific antibody, not shown: small tags and cut ends)
chain: B1 chain with L34M, N55D, D56G, N63S, N77S, T78M, G198A, S206N
B17: HiPEG D-His6 val-cit-PAB-MMAE (other)
VH: EVQLLESGGGLVQPGGSLRLSCAASGFRISDEDMGWVRQAPGKGLEWVSSIYGPSGSTYYADSVKGRFTISRDNSKNTLYLQMNSLRAEDTAVYYCASALEPLSEPLGFWGQGTLVTVSSAAAHHHHHH
modifications: HiPEG val-cit-PAB-MMAE attached via the C-terminal His6 tag
B18: single VH domain antibody 8.1 (VHH)
VHH: QVQLQQWGAGLLKPSETLSLTCAVYGGSFSGYYWSWIRQPPGKGLEWIGEINHSGSTNYNPSLKSRVTISVDTSKNQFSLKLSSVTAADTAVYYCARGPIPATAIPDAFDIWGQGTMVTVSS
notes: human single VH domain (Humabody); not shown: C-terminal His tag
B19: single VH domain antibody 9.1 (VHH)
VHH: QVQLQQWGAGLLKPSETLSLTCAVYGGSFSGHYWSWIRQPPGKGLEWIGDINHSGSTNYNPSLKSRVTISVDTSKNQFSLKLSSVTAADTAVYYCVRDYGDSRSLFDYWGQGTLVTVSS
notes: as for B18

Target: T1, human PSMA (prostate specific membrane antigen), full-length, expressed on cells (human, UniProt Q04609 1-750)
T1 sequence (Q04609 whole entry): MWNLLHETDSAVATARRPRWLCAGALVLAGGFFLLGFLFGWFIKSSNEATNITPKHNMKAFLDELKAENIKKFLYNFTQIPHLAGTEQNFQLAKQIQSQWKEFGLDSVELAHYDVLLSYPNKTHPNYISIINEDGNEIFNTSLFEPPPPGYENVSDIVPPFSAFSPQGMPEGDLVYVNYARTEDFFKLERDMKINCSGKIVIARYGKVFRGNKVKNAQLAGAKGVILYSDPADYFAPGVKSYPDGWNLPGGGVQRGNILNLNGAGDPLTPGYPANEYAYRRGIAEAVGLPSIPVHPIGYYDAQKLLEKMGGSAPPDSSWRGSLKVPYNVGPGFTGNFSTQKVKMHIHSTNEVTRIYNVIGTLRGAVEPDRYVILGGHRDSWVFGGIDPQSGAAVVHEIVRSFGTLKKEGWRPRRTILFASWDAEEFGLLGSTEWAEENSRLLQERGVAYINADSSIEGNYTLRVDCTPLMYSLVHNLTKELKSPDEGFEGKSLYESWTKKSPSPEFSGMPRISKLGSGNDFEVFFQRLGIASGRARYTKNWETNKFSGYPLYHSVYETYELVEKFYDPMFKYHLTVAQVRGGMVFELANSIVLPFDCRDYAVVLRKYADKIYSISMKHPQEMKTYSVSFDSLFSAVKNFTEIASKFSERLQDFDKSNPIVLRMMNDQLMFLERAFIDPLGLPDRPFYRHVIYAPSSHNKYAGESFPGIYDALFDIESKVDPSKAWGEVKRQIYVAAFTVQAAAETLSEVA
Assay: cell-based or functional assay

Binder	His-ZAP cell killing, human PSMA Average EC50
B1	0.017 nM
B2	0.0079 nM
B3	0.014 nM
B4	0.02 nM
B5	0.015 nM
B6	0.0057 nM
B7	0.01 nM
B8	0.015 nM
B9	0.012 nM

Target: cynomolgus PSMA, full-length, expressed on CHO cells (cynomolgus, UniProt A0A2K5VNZ0 1-750)
Assay: cell-based or functional assay

Binder	His-ZAP cell killing, cyno PSMA Average EC50
B1	0.012 nM
B2	0.0081 nM
B3	0.013 nM
B10	0.011 nM
B4	0.011 nM
B11	0.01 nM
B12	0.009 nM
B5	0.011 nM
B13	0.0078 nM
B6	0.0058 nM
B14	0.0086 nM
B7	0.0095 nM
B15	0.012 nM
B8	0.014 nM
B16	0.011 nM
B9	0.0056 nM

Target: T1, human PSMA (prostate specific membrane …)
Assay: cell-based or functional assay
Remark: another data set of the same source

Binder	cytotoxicity on PSMA-DU145, 48 h, Mean IC50
B17	> 300 nM

Target: T1, human PSMA (prostate specific membrane …)
Assay: cell-based or functional assay
Remark: another data set of the same source

Binder	PSMA-DU145 cytotoxicity assay (72 h), IC50	PSMA-DU145 cytotoxicity assay (72 h), IC50 (toxin)
B17	> 100 nM	> 100 nM

Target: T2, recombinant human PSMA (R&D, cat. no. 4234-ZN) (human, UniProt Q04609 44-750)
T2 construct: also called rhPSMA; Recombinant PMSA
T2 sequence (Q04609 44-750 limits assumed): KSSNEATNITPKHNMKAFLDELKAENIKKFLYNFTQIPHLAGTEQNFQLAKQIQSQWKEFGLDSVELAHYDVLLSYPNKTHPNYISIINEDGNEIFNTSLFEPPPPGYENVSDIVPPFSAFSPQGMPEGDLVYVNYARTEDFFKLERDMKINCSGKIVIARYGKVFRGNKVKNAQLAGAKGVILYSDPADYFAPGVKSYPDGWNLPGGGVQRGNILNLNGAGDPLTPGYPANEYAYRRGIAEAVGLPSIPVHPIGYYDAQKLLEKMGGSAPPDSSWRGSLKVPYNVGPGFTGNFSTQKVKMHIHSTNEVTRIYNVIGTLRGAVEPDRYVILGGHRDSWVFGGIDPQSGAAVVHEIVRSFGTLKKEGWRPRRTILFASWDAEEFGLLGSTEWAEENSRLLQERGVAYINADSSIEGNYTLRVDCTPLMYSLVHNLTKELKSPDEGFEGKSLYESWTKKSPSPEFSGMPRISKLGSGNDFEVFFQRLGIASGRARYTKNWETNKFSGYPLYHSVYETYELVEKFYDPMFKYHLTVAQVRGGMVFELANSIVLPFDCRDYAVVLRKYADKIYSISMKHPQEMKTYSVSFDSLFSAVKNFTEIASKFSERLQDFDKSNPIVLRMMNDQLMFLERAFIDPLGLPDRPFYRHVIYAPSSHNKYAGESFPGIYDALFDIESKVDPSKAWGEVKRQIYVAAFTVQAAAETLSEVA
Assay: periprep/phage screen, rhPSMA

binding result	Binder
no binding	B18
no binding	B19
